Experimental data from patent publication US20120093811A1 (published 2012).

T1: VEGF-D (recombinant human; source not given) (human, UniProt O43915 89-205, limits assumed)
T1 construct: also used here as target of IC50 values averaged over Source 1 and Source 2; also called vascular endothelial growth factor-D
T1 sequence: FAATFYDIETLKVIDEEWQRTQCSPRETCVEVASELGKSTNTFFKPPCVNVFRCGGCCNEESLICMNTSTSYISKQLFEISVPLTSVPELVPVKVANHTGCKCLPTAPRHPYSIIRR


Target: T1, VEGF-D (recombinant human; source not …)
Assay: SPR (BIAcore) off-rate ranking of scFv clones
Method: Screening based on scFv binding properties involved surface plasmon resonance (SPR) measurements with a BIAcore™ biosensor. scFv variants were expressed in 200 μL E. coli cultures and the supernatants used to generate crude off-rate only kinetics, which were assessed “relative” to 1A, or other variants.

koff [s⁻¹] | Binder
0.00464 | scFv clone G11 (scFv) scFv: QVQLVQSGAEVKQPGASVKVSCKASGYTFTGYNMYWVRQAPGQGLEWMGYIDPYNGDTTYNQKFKGRVTMTTDTSTSTAYMELRSLRSDDTAVYYCARTSYYGGMDYWGRGTLVTVASGGGASGGGGSGGGGSDIVMTQTPLSSPVTLGQPASISCRSSQSLVHSNGNTYLHWLQQRPGQPPRLLIYKVSNRFSGVPGRFSGSGAGTDFTLKISRVEAEDVGVYYCSQSTHVPRTFGQGTKLEIKR
0.00772 | scFv clone G38 (scFv) scFv: QVQLVQSGAEVKQPGASVKVSCKASGYTFTGYNMYWVRQVPGQGLEWMGYIDPYNGDTTYNQKFKGRVTMTTDTSTSTAYMELRSLRSDDTAVYYCARTSYYGGMDYWGRGTLATVASGGGASGGGGSGGGGSDIVMTQTPLSSPVTLGQPASISCRSSQSLVHSNGNTYLHWLQQRPGQPPRLLIYKVSNRFSGVPDRFSGSGAGTDFTLKISRVEAEDVGVYYCSQSTHVPRTFGQGTKLEIKR
0.00212 | scFv clone HH69 (scFv) scFv: QVQLVQSGAKVKQPGASVKASCKASGYTFTGYNMYWVRQAPGQGLEWMGYIDPYSGDTTYNQKFKGRVTMTTDTSTSTAYMELRSLRSDDTAVYYCARTSYYGGMDYWGRGTLVTVASGGGASGGGGSGGGGSDIVMTQTPLSGPVTLGQPASISCRSSQSLVHSNGNTYLHWLQQRPGQPPRLLIYKVSNRFSGVPDRFSGSGAGTDFTLKISRVEAEDVGVYYCSQSTHVPRTFGRGTKLEIKR
0.00104 | scFv clone HH41 (scFv) scFv: QVQLVQSGAEVKQPGASVKVSCKASGYTFTGYNMYWVRQAPGQGLEWMGYIDPYNGDTTYNQKFKGRVTMTTDTSTSTAYMKLRSLRSDDTAVYYCARTSYYGGMDYWGRGTLVTVASGGGASGGGGSGGGGSDIVMTQTPLSSPVTLGQPASISCRSSQSLVHGNGNTYLHWLQQRPGQPPRLLIYKVSNRFSGVPDRFSGSGAGTDFTLKISRVEAEDVGVYYCSQSTHVPRTFGQGTKLEIKR
0.00181 | scFv clone HU75 (scFv) scFv: QVQLVQSGAEVKQPGASVKVSCKASGYTFTGYNMYWVRQAPGQGLEWMGYIDPYNGDTTYNQKFKGRVTMTTDTSTSTAYMKLRSLRSDDTAVYYCARTSYYGGMDYWGRGTLVTVASGGGASGGGGSGGGGSDIVMTQTPLSGPVTLGQPASISCRSSQSLVHSNGNTYLHWLQQRPGQPPRLLIYKVSNRFSGVPDRFSGSGAGTDFTLKISRVEAEDVGVYYCSQSTHVPRTFGRGTKLEIKR
0.00643 | scFv clone HX28 (scFv) scFv: QVQLVQSGAKVKQPGASVKASCKASGYTFTGYNMYWVRQAPGQGLEWMGYIDPYSGDTTYNQKFKGRVTMTTDTSTSTAYMELRSLRSDDTAVYYCARTSYYGGMDYWGRGTLVTVASGGGASGGGGSGGGGSDIVMTQTPLSSPVTLGQPASISCRSSQSLVHSNGNTYLHWLQQRPGQPPRLLIYKVSNRFSGVPGRFSGSGAGTDFTLKISRVEAEDVGVYYCSQSTHVPRTFGQGTKLEIKR
0.00586 | scFv clone G37 (scFv) scFv: QVRLVQSGAEVKQPGASVKVSCKASGYTFTGYNMYWVRQAPGQGLEWMGYIDPYNGDTTYNQKFKGRVTMTTDTSTSTAYMELRSLRSDDTAVYYCARTGYYGGMDYWGRGTLVTVASGGGASGGGGSGGGGSDIVMTQTPLSSPVTLGQPASISCRSSQSLVHSNGNTYLHWLQQRPGQPPRLLIYKVSNRFSGVPDRFSGSGAGTDFTLKISRVEAEDVGVYYCSQSTHVPRTFGQGTKLEIKR
0.00653 | scFv clone H71 (scFv) scFv: QVQLVQSGAEVKQPGASVRVSCKASGYTFTGYNMYWVRQAPGQGLEWMGYIDPYNGDTTYNQKFKGRVAMTTDTSTSTAYMELRSLRSDDTAVYYCARTSYYGGMDYWGRGTLVTVASGGGASGGGGSGGGGSDIVMTQTPLSSPVTLGQPASISCRTSQSLVHSNGNTYLHWLQQRPGQPPRLLIYKVSNRFSGVPDRFSGSGAGTDFTLKISRVEAEDVGVYYCSQSTHVPRTFGQGTKLEIKR
0.00657 | scFv clone H44 (scFv, G131R lies in the scFv linker) scFv: QVQLVQSGAEVKQPGASVKVSCKASGYTFTGYNMYWVRQAPGQGLGWMGYIDPYNGDTTYNQKFKGRVTMTTDTSTSTAYMELRSLRSDDTAVYYCARTSYYGGMDYWGRGTLVTVASGGGASGGGGSGGRGSDIVMTQTPLSSPVTLGQPASISCRSSQSLVHSNGNTYLHWLQQRPGQPPRLLIYKVSNRFSGVPDRFSGSGAGTDFTLKISRVEAEDMGVYYCSQSTHVPRTFGQGTKLEIKR
0.00785 | scFv clone P88 (scFv) scFv: QVQLVQSGAEVKQPGASVKVSCKASGYTFTGYNMYWVRQAPGQGLEWMGYIDPYNGDTTYNQKFKGRVTMTTDTSTSTAYMELRSLRSDDTAVYYCARTSYYGGMDYWGRGTLVTVASGGGASGGGGSGGGGSDIVMIQTPLSSPVTLGQPASISCRSSQSLVHSNGNTYLHWLQQRPGQPPRLLIYKVSNRFSGVPDRFSGSGAGTDFTLKISRVEAEDVGVYYCSQSTHVPRTFGQGTKLEIKR
0.00189 | scFv clone HW78 (scFv) scFv: QVQLVQSGAEVKQPGASVKVSCKARGYTFTGYNMYWVRQAPGQGLEWMGYIDPYNGDTTYNQKFKGRVTMTTDTSTGTAYMKLRSLRSDDTAVYYCARTSYYGGMDYWGRGTLVTVASGGGASGGGGSGGGGSDIVMTQTPLSSPVTLGQPASISCRSSQSLVHSNGNTYLHWLQQRPGQPPRLLIYKVSNRFSGVPDRFSGSGAGTDFTLKISRVEAEDVGVYYCSQSTHVPRTFGQGTKLEIKR
0.00403 | scFv clone K89 (scFv) scFv: QVQLVQSGAEVKQPGASVKVSCKARGYTFTGYNMYWVRQAPGQGLEWMGYIDPYNGDTTYNQKFKGRVTMTTDTSTSTAYMELRSLRSDDTAVYYCARTSYYGGMDYWGRGTLVTVASGGGASGGGGSGGGGSDIVMTQTPLSSPVTLGQPASISCRSSQSLVHSNGNTYLHWLQQRPGQPPRLLIYKVSNRFSGVPDRFSGSGAGTDFTLKISRVEAEDVGVYYCSQSTHVPRTFGQGTKLEIKR
0.00738 | scFv clone I84 (scFv) scFv: QVQLVQSGAEVKQPGASVKVSCKASGYTFTGYNMYWVRQVPGQGLEWMGYIDPYNGDTTYNQKFKGRVTMTTDTSTSTAYMELRSLRSDDTAVYYCARTSYYGGMDYWGRGTLVTVASGGGASGGGGSGGGGSDIVMTQTPLSSPVTLGQPASISCRSSQSLVHSNGNTYLHWLQQRPGQPPRLLIYKVSNRFSGVPDRFSGSGAGTDFTLKISRVEAEDVGVYYCSQSTHVPRTFGQGTKLEIKR
0.0072 | scFv clone G75 (scFv) scFv: QVQLVQSGAEVKQPGASVKVSCKASGYTFTGYNMYWVRQVPGQGLEWMGYIDPYNGDTTYNQKFKGRVTMTTDTSTSTAYMELRSLRSDDTAVYYCARTSYYGGMDYWGRGALVTVASGGGASGGGGSGGGGSDIVMTQTPLSSPVTLGQPASISCRSSQSLVHSNGNTYLHWLQQRPGQPPRLLIYKVSNRFSGVPDRFSGSGAGTDFTLKISRVEAEDVGVYYCSQSTHVPRTFGQGTKLEIKR
0.00661 | scFv clone I71 (scFv) scFv: QVQLVQSGAEVKQPGASVRVSCKASGYTFTGYNMYWVRQAPGQGLEWMGYIDPYNGDTTYNQKFKGRVTMTTDTSTSTAYMELRSLRSDDTAVYYCARTSYYGGMDYWGRGTLVTVASGGGASGGGGSGGGGSDIVMTQTPLSSPVTLGQPASISCRSSQSLVHSNGNTYLHWLQQRPGQPPRLLIYKVSNRFSGVPDRFSGSGAGTDFTLKISRVEAEDVGVYYCSQSTHVPRTFGQGTKLEIKR
